Results on one molecule are retold here after US20220017605A1 (ICAHN SCHOOL OF MEDICINE AT MOUNT SINAI, published 2022).

Where “and” joins values, the source holds several entries; their conditions need not be identical. Identical values can stand only once.

Experiment [1] addresses recombinant NS1 protein of Zika virus MR766 (Rhesus/1947/Uganda) with C-terminal hexahistidine tag (Zika virus MR766, UniProt Q32ZE1 791-1142).
Experiment [2] concerns the target recombinant NS1 protein of Zika virus PRVABC59 (2015/Puerto Rico) with C-terminal hexahistidine tag (Example … (Zika virus PRVABC59, UniProt A0A024B7W1 795-1146)).

Chain of recombinant NS1 protein of Zika virus MR766 (Rhesus/1947/Uganda) with C-terminal hexahistidine tag (Q32ZE1 791-1142, tags left off): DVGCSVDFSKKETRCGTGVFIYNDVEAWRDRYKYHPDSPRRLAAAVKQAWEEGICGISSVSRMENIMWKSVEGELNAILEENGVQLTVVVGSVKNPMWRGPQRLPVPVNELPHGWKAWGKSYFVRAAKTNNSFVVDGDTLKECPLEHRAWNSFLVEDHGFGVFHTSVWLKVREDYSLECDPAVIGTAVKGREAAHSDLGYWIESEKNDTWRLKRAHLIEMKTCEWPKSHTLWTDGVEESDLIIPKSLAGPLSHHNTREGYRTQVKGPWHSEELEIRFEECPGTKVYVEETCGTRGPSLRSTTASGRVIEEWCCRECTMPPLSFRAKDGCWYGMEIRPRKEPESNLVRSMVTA
Chain of recombinant NS1 protein of Zika virus PRVABC59 (2015/Puerto Rico) with C-terminal hexahistidine tag (Example … (A0A024B7W1 795-1146, tags left off): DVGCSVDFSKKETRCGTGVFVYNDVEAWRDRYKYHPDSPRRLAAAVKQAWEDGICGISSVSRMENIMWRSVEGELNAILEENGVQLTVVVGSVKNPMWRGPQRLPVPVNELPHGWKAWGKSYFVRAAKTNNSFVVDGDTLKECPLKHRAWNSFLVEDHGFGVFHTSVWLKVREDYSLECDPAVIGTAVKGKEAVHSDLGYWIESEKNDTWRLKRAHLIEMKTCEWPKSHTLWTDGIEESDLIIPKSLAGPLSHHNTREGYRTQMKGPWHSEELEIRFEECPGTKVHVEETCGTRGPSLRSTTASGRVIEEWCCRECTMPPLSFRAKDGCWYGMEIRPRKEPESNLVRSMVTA

B1: human monoclonal antibody AA12 (antibody, V domains shown)
VH: EVQLVESGGGLIQPGGSLRLSCAASGFTVSSNYMSWVRQAPGKGLEWVSVIYSGGSTYYADSVKGRFTISRDNSKNTLYLQMNSLRAEDTAVYYCARDRRGFDYWGQGTMVTVSS
VL: DIQMTQSPLSLSASVGDRVTITCRTSQSISSYLNWYQQKPGKAPKLLIYAASSLQSGVPSRFSGSGSGTDFTLTISSLQPEDFATYYCQQTYSTPLTFGGGTKVEIK
For orientation: Kd means the equilibrium constant for the complex coming apart. As to B1, the Kd in experiment [1] is 55.4 nM and 99.8 nM; in experiment [2], 147 nM and 76.1 nM.
